Experimental data as given in patent publication US20080039410A1, “Inositol 1,4,5-Trisphosphate Receptor Mutants and Uses Thereof” (priority 2004, published 2008).
“Also recorded” adds a separate entry of the source.

Biological target: T1, S2+ InsP3R-1 (Rattus norvegicus, UniProt P29994, S1756E)
T1 construct: The entire receptor DNA was excised from the plasmid using EcoRI and ligated into the plasmid MXT-1; expressed in transfected cells; host or cells: DT-40 3ko (chicken B cells lacking all InsP3R), co-transfected with m3 muscarinic receptor and HcRed
Assay: Flash photolysis of caged InsP3 (ci-IP3/PM), Fluo-4, DT-40 3ko cells expressing S2+ InsP3R-1 constructs
Format: cell-based
Conditions: UV flash 0.5-5 ms
Experimental: Transfected cells were simultaneously loaded by incubation with the visible wavelength indicator Fluo-4 and a cell permeable form of caged-inositol trisphosphate (ciIP3/PM) for 30 min. Ci-IP3/PM is a homologue of cm-IP3/PM [45] The 2- and 3-hydroxyls of the inositol ring were protected by an isopropylidene group in ci-IP3/PM, and were protected by a methoxymethylene group in cm-IP3/PM. Like cm-IP3/PM, ci-IP3/PM diffuses across cell membranes and induces internal calcium release upon photo-uncaging. A further period of approximately 30 min was allowed for de-esterification of both dye and cage. Cells were illuminated at 488±10 nm and fluorescence collected through a 525±25 nm band pass filter and captured using the Till Photonics imaging suite. […] Photolytic release was performed as previously described using a pulsed Xenon arc lamp (Till Photonics). […]
Transfected cells were simultaneously loaded with the visible wavelength indicator Fluo-4 and a cell-permeable form of caged inositol trisphosphate (ci-IP3/PM) for 30 min. ci-IP3/PM is a homologue of cm-IP3/PM. […] Cells were illuminated at 488±10 nm and fluorescence collected through a 525±25-nm bandpass filter and captured using the Till Photonics imaging suite. […]

T1 sequence (P29994 1-2749 isoform P29994-3 S1755E): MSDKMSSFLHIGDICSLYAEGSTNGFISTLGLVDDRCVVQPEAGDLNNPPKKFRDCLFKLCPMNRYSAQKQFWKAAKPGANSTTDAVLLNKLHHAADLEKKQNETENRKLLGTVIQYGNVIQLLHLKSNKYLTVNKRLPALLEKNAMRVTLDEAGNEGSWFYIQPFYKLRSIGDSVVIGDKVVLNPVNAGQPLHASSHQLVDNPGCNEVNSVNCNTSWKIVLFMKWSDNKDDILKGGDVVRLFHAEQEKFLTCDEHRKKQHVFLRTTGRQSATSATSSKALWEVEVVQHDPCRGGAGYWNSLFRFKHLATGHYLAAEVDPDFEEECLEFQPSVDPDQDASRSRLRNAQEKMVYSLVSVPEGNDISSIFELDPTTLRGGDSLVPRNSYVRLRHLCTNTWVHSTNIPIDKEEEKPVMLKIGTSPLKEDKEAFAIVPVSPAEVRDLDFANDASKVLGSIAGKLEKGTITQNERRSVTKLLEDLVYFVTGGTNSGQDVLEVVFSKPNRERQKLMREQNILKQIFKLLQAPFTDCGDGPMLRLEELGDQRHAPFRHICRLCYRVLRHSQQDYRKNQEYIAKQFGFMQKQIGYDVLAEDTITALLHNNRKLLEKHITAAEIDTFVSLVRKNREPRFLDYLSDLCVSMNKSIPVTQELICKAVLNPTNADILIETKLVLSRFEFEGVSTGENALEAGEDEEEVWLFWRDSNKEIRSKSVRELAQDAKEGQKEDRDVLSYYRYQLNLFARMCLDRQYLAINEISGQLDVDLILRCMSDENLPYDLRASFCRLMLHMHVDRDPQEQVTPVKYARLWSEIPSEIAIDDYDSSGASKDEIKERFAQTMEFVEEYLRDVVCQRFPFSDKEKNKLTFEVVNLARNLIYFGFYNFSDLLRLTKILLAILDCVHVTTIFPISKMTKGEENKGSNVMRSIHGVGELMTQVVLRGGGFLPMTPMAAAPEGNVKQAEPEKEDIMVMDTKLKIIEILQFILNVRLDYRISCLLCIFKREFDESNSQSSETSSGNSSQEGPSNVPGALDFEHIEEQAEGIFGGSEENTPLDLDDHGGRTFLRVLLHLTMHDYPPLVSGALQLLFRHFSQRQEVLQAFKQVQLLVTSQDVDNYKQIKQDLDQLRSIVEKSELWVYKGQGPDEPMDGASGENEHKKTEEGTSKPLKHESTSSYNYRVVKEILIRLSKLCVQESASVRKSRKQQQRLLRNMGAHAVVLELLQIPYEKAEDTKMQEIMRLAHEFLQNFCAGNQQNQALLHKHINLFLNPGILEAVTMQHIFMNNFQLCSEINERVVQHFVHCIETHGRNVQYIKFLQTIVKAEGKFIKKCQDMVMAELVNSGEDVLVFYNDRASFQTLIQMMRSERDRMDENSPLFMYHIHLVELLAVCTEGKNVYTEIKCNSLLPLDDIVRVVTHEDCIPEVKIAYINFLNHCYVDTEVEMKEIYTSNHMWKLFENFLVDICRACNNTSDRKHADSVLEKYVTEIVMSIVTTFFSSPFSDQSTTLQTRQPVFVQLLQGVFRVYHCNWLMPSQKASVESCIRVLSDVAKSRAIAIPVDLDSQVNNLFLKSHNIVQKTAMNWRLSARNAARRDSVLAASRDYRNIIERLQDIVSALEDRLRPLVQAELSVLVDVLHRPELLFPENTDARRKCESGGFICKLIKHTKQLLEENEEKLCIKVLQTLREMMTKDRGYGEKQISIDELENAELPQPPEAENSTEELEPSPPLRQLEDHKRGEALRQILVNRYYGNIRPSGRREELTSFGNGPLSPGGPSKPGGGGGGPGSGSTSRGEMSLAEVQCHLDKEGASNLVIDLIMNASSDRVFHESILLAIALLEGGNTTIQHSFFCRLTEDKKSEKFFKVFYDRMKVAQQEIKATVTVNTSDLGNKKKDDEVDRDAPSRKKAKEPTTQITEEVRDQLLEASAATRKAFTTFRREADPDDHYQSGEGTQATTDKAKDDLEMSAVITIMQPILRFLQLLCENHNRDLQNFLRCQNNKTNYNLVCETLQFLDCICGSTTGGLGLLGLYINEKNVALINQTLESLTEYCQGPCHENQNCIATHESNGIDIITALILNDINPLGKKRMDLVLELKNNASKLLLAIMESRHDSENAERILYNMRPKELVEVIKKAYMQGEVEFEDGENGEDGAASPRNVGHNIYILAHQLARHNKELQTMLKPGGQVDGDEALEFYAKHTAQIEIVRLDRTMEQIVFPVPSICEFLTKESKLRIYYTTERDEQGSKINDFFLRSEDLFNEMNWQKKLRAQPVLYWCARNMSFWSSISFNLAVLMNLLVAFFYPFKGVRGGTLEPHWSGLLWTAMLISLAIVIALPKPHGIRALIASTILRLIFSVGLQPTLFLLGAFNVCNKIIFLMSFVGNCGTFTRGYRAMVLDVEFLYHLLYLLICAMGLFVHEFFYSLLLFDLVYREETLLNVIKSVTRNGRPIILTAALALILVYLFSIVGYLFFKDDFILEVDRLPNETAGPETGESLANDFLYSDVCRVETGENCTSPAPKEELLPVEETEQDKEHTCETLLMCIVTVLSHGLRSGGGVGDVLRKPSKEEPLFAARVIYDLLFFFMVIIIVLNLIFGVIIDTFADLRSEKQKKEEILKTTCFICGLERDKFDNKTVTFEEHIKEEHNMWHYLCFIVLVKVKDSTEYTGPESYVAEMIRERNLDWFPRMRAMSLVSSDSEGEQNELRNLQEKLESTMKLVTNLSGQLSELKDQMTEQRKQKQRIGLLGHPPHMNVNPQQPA

Substance: S2+SE: phosphomimetic S2+ InsP3R-1, long splice variant of S1755E
- response to photolysis of ci-IP3 versus nonphosphorylatable mutant: more robustly; also recorded: more sensitive than S2+SA
